According to the supplement of paper PMC12042874:
± gives the uncertainty stated by the source.

Assay: amyloid nucleation score (Sup35N fusion, yeast selection) (log enrichment); library NNK1; higher = more nucleation; inactive = no reads after selection
How it was run: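 After 24 hours of induction with 100 μM copper sulfate, psi-negative yeast expressing peptides of 20 random codons fused to Sup35N were grown for 7 days at 30°C on medium lacking adenine and uracil. Input and output plasmid inserts were sequenced with Illumina, and sequences with under 100 input reads were discarded. Scores for nucleation are the DiMSum log enrichment of output over input reads, centred on the mode score of non-aggregating sequences.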

Substance	amyloid nucleation score
LYGPQSPGRSPVSTFGRGRF	0.321 ± 0.4
LYHGVYPKFLYKLVVESSLS	-1.79 ± 1.7
LYHSTLYLNVCYTYHSAGGN	1.24 ± 0.21
LYICPHYDYWLCEQYMHWSP	0.69 ± 0.35
LYKKICKALSYIMDLTRVLP	-1.54 ± 2.1
LYLFDPTNQKRFEVWKWK	0.063 ± 0.49
LYLVILVELMVYSKWCIKSP	0.414 ± 0.36
LYMICGVYCLDSGIRTMRTF	5.51 ± 0.067
LYRFNF	0.223 ± 0.45
LYRRGTRPPG	-1.28 ± 2.4
LYRVTYSNACMFGVVG	0.695 ± 0.54
LYSCMRVVATATVSGGLVIE	-0.843 ± 0.69
LYSLVGCWTLCLNVSCFEWL	4.93 ± 0.064
LYTIRTYPSLLKCDSPLN	-1.01 ± 0.78
LYTNSLRF	-0.419 ± 0.64
LYVHSFFRFMWSDKVLLSKT	0.856 ± 0.56
MACRSPEGLEYMKN	0.209 ± 0.46
MAGYL	-0.078 ± 0.48
MAICSGMTSWAVLLEVWN	0.504 ± 0.57
MCNDGSYYAILACGVSLRVL	inactive
MCPTLVLSA	inactive
MCRLTPRIITDY	0.244 ± 0.28
MCSLYFLYGAGVSCGSVLNV	0.063 ± 0.4
MDCTFINGFRVFNLSNSR	7.967 ± 0.059
MDCWENVIRQKASSSGWLEN	-0.725 ± 0.52

Substance	amyloid nucleation score
MDKLASLLSSKGCAIKGLRS	-2.19 ± 1.3
MDLAYMFKLCIGVESM	inactive
MDSCFVLAHVAGNRMVLWNA	0.268 ± 0.43
MDSTDWRVLLGRSMGWS	-0.596 ± 0.47
MEGRVMGKRVAVY	-0.155 ± 0.59
MEISLVINWSIIITKVCVCV	0.497 ± 0.33
MEPLVTQCRHKG	-1.31 ± 1.1
MERTWFG	0.276 ± 0.3
MEYTYVQTSKYKHERNATWC	0.008 ± 0.97
MFGFHRNRDDHSCIHFTFK	2.58 ± 0.15
MFIASGV	-1.65 ± 0.84
MFNHV	0.807 ± 1
MFVNPALLLFL	0.226 ± 1.6
MFYLTFYNLRIND	6.01 ± 0.061
MFYSFNDVGWFAFRFSEIGV	-0.539 ± 0.41
MGAWINYIAPTRYYLMDFFW	-1.7 ± 2.4
MGFVGPENAKDYCSRGV	0.357 ± 0.5
MGGLRVYRPCVER	-0.437 ± 0.71
MGHVLGVYKSP	1.2 ± 0.46
MGLGVRVEKSSCACG	0.841 ± 0.37
MGRLRARRSLVLVA	inactive
MGTDRMCHS	0.328 ± 0.97
MGYRDNLSF	0.915 ± 0.53
MHGSGLHSDSLGPTV	0.565 ± 0.69
MHSPRGLE	1.07 ± 0.79

Substance	amyloid nucleation score
MHWLRGVRS	0.082 ± 0.47
MIFSHETSRVIGDPWGPWN	0.056 ± 0.88
MKIVNVHAWATQLARGDICE	0.745 ± 0.83
MKLRVDLFSYGRCLCEQ	-0.021 ± 0.25
MKRDSFPLFNFCLA	0.137 ± 0.5
MKRTFRTLF	0.57 ± 0.41
MKRVWSYIAGKNARNLKGRL	0.174 ± 0.41
MKSALKALTEHSPQSYDWCR	-0.4 ± 0.61
MLARKRMLNLLLRGWAYSWT	0.09 ± 0.49
MLDFTIQGLKSCWISVSLFF	inactive
MLIRVISDVLPG	0.224 ± 0.5
MLPLCMSAIRRVKLRSPSEY	0.151 ± 0.52
MLQCYLLFARYLLRNLSWGW	0.59 ± 0.62
MLSTTLALLTERSFGAY	0.021 ± 0.39
MLTECSRFLNVFGVGEHEVN	-0.162 ± 0.58
MLTNVSNICYWNDVVGDSLA	0.838 ± 0.28
MLTPDLSSDLDILRPTSPLT	0.879 ± 0.51
MLVHYVAFVFNMSTRCNCSE	6.253 ± 0.046
MLVLRMYYTRNS	2.24 ± 0.23
MLVYYNDKSVFHRFVLLRN	0.644 ± 0.85
MMGGSRWTCCYTFDFWSCWD	4.27 ± 0.1
MMLSLISVQV	0.379 ± 0.68
MMPSECMEFLMCLWFGSGSD	-0.722 ± 0.55
MMSSFDVWDS	-0.077 ± 0.73
MNFDCFPNSL	1.22 ± 0.35

Substance	amyloid nucleation score
MNIVIHIPNMRMAAKD	7.17 ± 0.08
MNKQAFNGRM	inactive
MNLRETSAFSPCNEVL	-0.063 ± 1.4
MNTWDMSLIPWSLARWVNTA	0.063 ± 0.4
MNVFVSRNYVYLKYEFRSLA	6.642 ± 0.051
MPEILSVRSF	-0.943 ± 0.32
MPLKVSSMDLGRIKE	-0.333 ± 0.41
MPLLYSVSHCWFKPAFGWAW	0.442 ± 0.69
MPPMYGRGRPMNKIGVWDYA	1.14 ± 0.51
MPRLTDRDKLCDFVNLQFIF	6.7 ± 0.073
MQVVKIGKLFG	-0.112 ± 0.39
MQWWVGYAIITEN	-0.119 ± 0.56
MRACRYANLNVSRNMWGICG	0.743 ± 0.48
MRDTFFLDRMQITLCSW	0.306 ± 0.33
MRFKFMALGCEVLILGGFGS	3.72 ± 0.16
MRNIVWCCSVVLCCLFGVLF	0.385 ± 0.69
MRNVTFTGLMLDSDWNVH	-0.338 ± 1.1
MRQWSGQG	0.758 ± 1
MRTPGCVMF	-0.44 ± 0.93
MRYVMTFFFHSYKA	-1.15 ± 0.91
MSCTVHLGLFMESTNHYCMC	inactive
MSCYLQAFDITTTTNDASWW	-0.95 ± 1.6
MSDVCNVMKKVMQGTCFCGH	-0.293 ± 0.27
MSIQCTSALGPL	2.13 ± 0.35
MSKYALNLAMVDRGLSKDQN	-0.898 ± 1.6

Substance	amyloid nucleation score
MSLDAFV	inactive
MSLLALWCLSVRCTVVLVRT	-0.003 ± 0.48
MSMYYISSCIISLSQVGMYV	1.26 ± 0.38
MSNMHNYLRLIWDTVCIQF	-0.083 ± 0.77
MSRIEGHRLDVLSRHFR	-0.046 ± 0.32
MSVNSRNMNKYLFWNKL	-0.029 ± 0.3
MSYIQRMGVYLTITGLRGMK	-0.527 ± 1
MTSLDFNYGISKLESSFYMY	-0.739 ± 0.29
MTTRIFSLKIA	0.066 ± 0.81
MTWIENKPLHNVRCRGIIAV	-0.12 ± 0.43
MVAIMQISMGSAVFLYAR	4.24 ± 0.097
MVAIRWYRMGLDDMNSGTVN	0.094 ± 0.27
MVGYGECIDMWPMLVKVDVV	-0.378 ± 0.69
MVIRYFCQESA	-0.799 ± 1.1
MVLTFAV	-1.36 ± 2.4
MVMMFTTDSMQAN	0.906 ± 0.52
MVMNTKCE	-0.643 ± 0.55
MVRNKQKLLKGQ	0.375 ± 0.49
MVRYLGYYLPNWRSFHWHRL	0.951 ± 0.44
MVSHKDQRIGPLLASVAHVR	-1.69 ± 1.3
MVSIWINFT	6.38 ± 0.08
MWGMF	-0.132 ± 0.35
MWHGSVTMGGIRGTRDSVHQ	0.792 ± 0.53
MWSYNLYNLVVTS	1.1 ± 0.28
MWTRHCN	0.483 ± 0.55

Substance	amyloid nucleation score
MWVCSYA	inactive
MWVLRPCCHFAVCRGIKVSR	-0.046 ± 0.53
MYGGKCSNGPCMYSVGIGTW	1.39 ± 0.34
MYPRSCIHVMCFTVVKASVG	-1.26 ± 0.74
MYVPQSINSYTQWEPKHIRW	1.64 ± 0.43
MYVSDCCSCICMVVDTRSIF	0.292 ± 0.39
NACDCQPMFVMQWYRRVEPR	-0.167 ± 0.53
NACIQVTGRCCIACVVEFWY	1.32 ± 0.38
NACRCVYSGRVSAYDVRVRN	0 ± 0.6
NADMFRTVLMMMFPAFRLIR	0.172 ± 0.22
NARFWVRCIDVHFGVKAGDG	inactive
NAVINQ	0.388 ± 0.73
NCCGSLETSSVSVVYLMWGW	5.917 ± 0.05
NCDKMVNMLPLRFSDIALSM	-0.566 ± 0.5
NCGVYIVYQKRLQAVGYCAN	-0.312 ± 0.3
NCKNVYCFKYASGIGERAFY	0.091 ± 0.42
NCPFEW	-0.116 ± 0.55
NCSGCIWVRMCLNHFGVCTD	2.38 ± 0.16
NCSGSRLFLMSLSL	6.52 ± 0.066
NCSLILTTKRNRWYLQRLRF	0.467 ± 0.33
NCTARMKVGFAGFSFTLWIA	0.533 ± 0.56
NCVQARFDERCVRGLGCKFY	-0.724 ± 0.64
NCVRSCISMQVYCTPAVVMY	5.483 ± 0.053
NDLYVGLDTYYIRHNLTRWF	0.447 ± 0.2
NDSDARYHVFRK	-0.256 ± 1.2

Substance	amyloid nucleation score
NDTQLRISACYALRDNGEWV	1.12 ± 0.66
NEGEVIAELIIFVNPWVTI	-0.599 ± 0.43
NEGIMPLVNHSKQEEPGVYR	0.753 ± 0.57
NEHAENDVTFQGNEDICVVM	-0.419 ± 0.34
NESEFLFSKAHRMVVIP	inactive
NEWKSLSINEMRGSMTINNS	1.44 ± 0.12
NFELEHLEICSDVCFGCAAE	1.12 ± 0.65
NFFQWPSVETWTASIN	-0.144 ± 0.41
NFINVVVWQEGYLRVIHTSV	0.537 ± 1.1
NFKNKIMGALS	-0.548 ± 2.1
NFKVYPSGCKEECAYVLLSL	3.87 ± 0.079
NFRKL	inactive
NFRWILSSAMDAIFPYVAFV	1.52 ± 0.78
NGCFIAFLTMFTYFTCTRVS	-0.76 ± 0.8
NGEIVYASWTCDPSIGRRGK	0.207 ± 0.97
NGGYYAMGVGFLYVFALCHD	2.05 ± 0.27
NGKEDKTCLWSVQPYCKSCE	-0.475 ± 1.2
NGLFAYVRM	0.505 ± 0.27
NGLSRYKKDLGLVDWYFGQM	0.744 ± 0.37
NGWPWGERSALRMG	-0.573 ± 0.95
NGWTFYCSCSWCGI	8.306 ± 0.049
NGYWLSFWTSRY	1.63 ± 0.46
NHFLRSNNKYLSWGKTYIAP	-0.846 ± 2.4
